Assay results as given in the supplement of paper PMC7125110.
± gives the standard error. Fewer inactive variants are shown than the library holds.

B1: glmS ribozyme (parent)
chain: AUAAAAGCGCCAGAACUACAGAAAUGUAGUUGACGAGGAGGAGGUUUAUCGAAUUUUCGGCGGAUGCCUCCAAA

Legend:
Settings in all cases: with glucosamine-6-phosphate
glucosamine-6-phosphate [1] = variants of: B1; assay: self-cleavage kobs at 40 uM GlcN6P; higher = faster cleavage; RNA array
Method in brief: (§1)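 Glucosamine-6-phosphate in HEPES/KCl/Mg(OAc)2 buffer, at 40 μM to 10 mM, was flowed over barcoded ribozyme variants transcribed in situ by E. coli RNA polymerase on sequenced MiSeq chips. Tracking was through a hybridised Cy3 probe at 37 °C. kobs, kcat and KM came from exponential decay fits and weighted Michaelis–Menten fits of normalised per-tile medians.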

glucosamine-6-phosphate [2] = variants of: B1; assay: self-cleavage kobs at 160 uM GlcN6P; higher = faster cleavage; RNA array
Method in brief: as §1

glucosamine-6-phosphate [3] = variants of: B1; assay: self-cleavage kobs at 10000 uM GlcN6P; higher = faster cleavage; RNA array
Method in brief: as §1

glucosamine-6-phosphate [4] = variants of: B1; assay: self-cleavage kobs at 640 uM GlcN6P; higher = faster cleavage; RNA array
Method in brief: as §1

glucosamine-6-phosphate [5] = variants of: B1; assay: self-cleavage kobs at 2500 uM GlcN6P; higher = faster cleavage; RNA array
Method in brief: as §1

Variant	self-cleavage kobs at 40 uM GlcN6P (glucosamine-6-phosphate [1]) [s⁻¹]	self-cleavage kobs at 160 uM GlcN6P (glucosamine-6-phosphate [2]) [s⁻¹]	self-cleavage kobs at 10000 uM GlcN6P (glucosamine-6-phosphate [3]) [s⁻¹]	self-cleavage kobs at 640 uM GlcN6P (glucosamine-6-phosphate [4]) [s⁻¹]	self-cleavage kobs at 2500 uM GlcN6P (glucosamine-6-phosphate [5]) [s⁻¹]
G51A U65G	< 1e-05	< 1e-05	< 1e-05	–	–
G7A G43C C71U	–	< 1e-05	–	< 1e-05	–
A53U C67G	3.3e-05 ± 8.7e-06	7.53e-05 ± 2e-05	0.00224 ± 0.00024	0.000519 ± 0.00012	0.000628 ± 0.0001
U65C C70A	< 1e-05	< 1e-05	–	–	–
G51A A52C	< 1e-05	< 1e-05	< 1e-05	–	–
U49C G62C	< 1e-05	–	–	< 1e-05	< 1e-05
A53G U69C	0.000897 ± 0.00014	0.000469 ± 8.4e-05	0.00674 ± 0.0018	0.00235 ± 0.00048	0.002 ± 0.00044
A6G G40C C50G	–	< 1e-05	–	–	< 1e-05
G62C G63A	< 1e-05	< 1e-05	–	< 1e-05	< 1e-05
G60C G62C	< 1e-05	< 1e-05	–	–	–
C50G U56G C61A	8.29e-05 ± 2e-05	–	6.89e-05 ± 1.6e-05	0.000426 ± 0.00014	0.00021 ± 4.8e-05
G60U C70G	< 1e-05	–	< 1e-05	–	–
A48C C50U	< 1e-05	< 1e-05	< 1e-05	< 1e-05	< 1e-05
A53C G63U C67G U69G	< 1e-05	–	–	–	–
G7C C10G C70U	–	< 1e-05	< 1e-05	–	–
G51A C61G	< 1e-05	< 1e-05	–	–	–
A6U C10G A36C	–	< 1e-05	–	–	< 1e-05
A6C C8G G35C C58U C67G	–	< 1e-05	–	–	< 1e-05
A48C G63U	< 1e-05	–	< 1e-05	< 1e-05	< 1e-05
G60U A64G	< 1e-05	< 1e-05	< 1e-05	< 1e-05	< 1e-05
G7A U65C	–	< 1e-05	< 1e-05	< 1e-05	< 1e-05
A6G C16G G38A	–	< 1e-05	–	< 1e-05	–
C8A A15U U47C U55A G63C U65G	–	< 1e-05	–	–	–

Variant	self-cleavage kobs at 40 uM GlcN6P (glucosamine-6-phosphate [1]) [s⁻¹]	self-cleavage kobs at 160 uM GlcN6P (glucosamine-6-phosphate [2]) [s⁻¹]	self-cleavage kobs at 10000 uM GlcN6P (glucosamine-6-phosphate [3]) [s⁻¹]	self-cleavage kobs at 640 uM GlcN6P (glucosamine-6-phosphate [4]) [s⁻¹]	self-cleavage kobs at 2500 uM GlcN6P (glucosamine-6-phosphate [5]) [s⁻¹]
G60A A64U	< 1e-05	–	–	< 1e-05	< 1e-05
A6U C11A A12U C34G C50U U55G	–	< 1e-05	–	< 1e-05	< 1e-05
C58U G62A	< 1e-05	< 1e-05	< 1e-05	< 1e-05	< 1e-05
C8A C70G	–	< 1e-05	–	–	–
A6G A36G U56A	–	< 1e-05	–	< 1e-05	< 1e-05
U56G G62C	< 1e-05	< 1e-05	–	–	< 1e-05
G7C G41C	–	< 1e-05	< 1e-05	< 1e-05	–
C8G C16U C34U U65G	–	< 1e-05	–	–	–
U54A C68U	0.000391 ± 6.1e-05	0.000218 ± 4.6e-05	–	0.000767 ± 0.00017	0.000405 ± 0.00011
C58A G63U U69C	< 1e-05	–	–	–	–
G62U G63A	< 1e-05	< 1e-05	< 1e-05	< 1e-05	< 1e-05
A6U U65G C70U	–	< 1e-05	–	< 1e-05	–
C50G G62U C68G	0.000123 ± 3.2e-05	–	9.97e-05 ± 2.5e-05	–	–
U57C G59U C61U	< 1e-05	–	< 1e-05	–	–
C50G C58A C68G C71U	9.15e-05 ± 1.8e-05	–	0.00024 ± 5.2e-05	–	–
G7A U30C A64C	–	< 1e-05	–	< 1e-05	< 1e-05
A53C G62U	< 1e-05	< 1e-05	< 1e-05	–	< 1e-05
A6U A14C G51A	–	< 1e-05	–	< 1e-05	–
A6U G38U G60C	–	< 1e-05	–	–	–
A6G A36G G44U C61U	–	< 1e-05	–	< 1e-05	< 1e-05
C50G C58G G66U C68A	6.12e-05 ± 1.5e-05	0.000177 ± 4e-05	0.00013 ± 2e-05	0.000228 ± 8e-05	0.000368 ± 6.5e-05
U55A G60C	< 1e-05	–	–	< 1e-05	–
A6C G32U A64G C67U	–	< 1e-05	–	< 1e-05	< 1e-05
